The results in this text go back to the nanobody polyreactivity screen of Harvey et al. (2022).

The data set is described as follows: yeast display, Sf9 membrane polyspecificity reagent, FACS + sequencing; frameworks hold sequencing errors. Summed up:
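In a synthetic yeast display library (Saccharomyces cerevisiae BJ5465), nanobody expression was induced with galactose for 36–48 hours. FACS gates were set low and high (top ~1%) using anti-HA fluorescence for expression and streptavidin fluorescence for binding of the Sf9 membrane reagent. Each polyreactivity label is drawn from the gate of origin.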
Consider “QVQLVESGGGLVQAGGSLRLSCAASGRTFQNNAMGWYRQAPGKERELVAAISRSGASTYYADSVKGRFTISRDNAKNTVYLQMNSLKPEDTAVYYCAARYQRTAYDYWGQGTQVTVSS”, for which the “polyreactivity (PSR sort gate)” value is “low polyreactivity”. For “QVQLQESGGGLVQAGGSQRLSCAASGYIFYFQYMGWYRQAPGKEREFVAAISDGANTNYADSVKGRFTISRDNAKNTEYLQMNSLKPEDTAVYYCAVYADENYYYIYWGQGTQVTVRS”, the “polyreactivity (PSR sort gate)” value was “low polyreactivity”. Consider “QVQLVESGGGLVQAGGSLRLSCAASGSIFHTYAMGWYRQAPGKERELVAAISGIGGSTYYADSVKGRFTISRDNAKNTVYLQMNSLKPEDTAVYYCAVELYWYPGYDYWGQGTQVTVSS”, for which the “polyreactivity (PSR sort gate)” value is given as “low polyreactivity”. Turning to “QVQLVESGGGLVQAGGSLRLSCAASGFTYKYYAMGWYRQAPGKERELVAAISGSGGRTYYADSVKGRFTISRDNAKNTVYLQMNSLKPEDTAVYYCAAVYLVTRGARYDYWGQGTQVTVSS”, the “polyreactivity (PSR sort gate)” value was “high polyreactivity”. For “QVQLVESGGGLVQAGGSLRLSCAASGRIFTFYAMGWYRQAPGKERELVATIRNGGSTNYADSVKGRFTISRDNAKNTVYLQMNSLKPEDTAVYYCNTYYYGRRRYGYWGQGTQVTVSS”, the “polyreactivity (PSR sort gate)” value was “high polyreactivity”.

For “QVQLVESGGGLVQAGGSLRLSCAASGFIFTRYAMGWYRQAPGKERELVAAISGTGGSTYYADSVKGRFTISRDNSKNTFFLQMNSLKPEDTAVYYCAAGYFVYLKYGYWGQGTKVTVSS”, the “polyreactivity (PSR sort gate)” value is “high polyreactivity”. Turning to “QVQLVESGGGLVQAGGSLRLSCASSGSTFKYYAMGWYRQAPGKERELVAAISSGGSTYYADSVKGRFTISRDNAKNTVYLLMNSLKPEDTAVYDCAARGYYGNFSGSGYWGQGTQVTVSS”, the “polyreactivity (PSR sort gate)” value was “high polyreactivity”. For “QVQLVESGGGLVQAGGSLRLSCAASGRTFRPYAMGWYRQAPGKERELVAVISYRGGSTYYADSVKGRFTISRDNAKNTVYLQMNSLKPEDTAVYYCNAQAGWFSRLYYWGQGTQVTVSS”, the “polyreactivity (PSR sort gate)” value was “high polyreactivity”.

In the case of “QVQLVESGGGLVQAGGSLRLSCAASGIILYVNAMGWYRQAPGKEREFVAAISWGGGSTYYADSVKGRFTISRDNAKNTVYLQMNSLKPEDTAVYYCAAEFWSGYPTYTYDYWGQGTQVTVSS”, the “polyreactivity (PSR sort gate)” value is recorded as “low polyreactivity”. For “QVQLVESGGGLVQAGGSLRLSCAASGFIFSVYAMGGYRQAPGKDTELVAVISTSGGRTYYADSVKGRFTISRDNAKNTVYLQMNSLKPEDTAVYYCAADGFQYTLGNYYWGQGTQVTVSS”, the “polyreactivity (PSR sort gate)” value is given as “high polyreactivity”. As for “QVQLVESGGGLVQAGGSLRLSCAASGSIFYLYAMGWYRQAPGKERELVAGITWSGGRTYYADSVKGRFTISRDNAKNTVYLQMNSLKPEDTAVYYCAAYASRYRYGYWGQGTQVTVSS”, the “polyreactivity (PSR sort gate)” value is reported as “high polyreactivity”. For the sequence “QVRLVESGGGLVQAGGSLRLSCAAYGSTFKTYAMGWYRPAPGKERELVAAISAGGGSTYYADSVKGRFTISRDNAKNTVYLQMNSLKPEDTAVYYCAAAYIYAGWDYEYWGQGTQVTVSS”, the “polyreactivity (PSR sort gate)” value was “low polyreactivity”.

On to “QVQLVESGGGLVQAGGSLRLSCAASGRTFGYNAMGWYRQAPGTERELVAAIRTIGDSTYYADSVKGRFTISRDNAKNTVYLQMNILKPVDTSVYYCAARKLRSRFDYWGQGTQVTVSS”, for which the “polyreactivity (PSR sort gate)” value was “high polyreactivity”.

Turning to “QVQLVESGGGLVQAGGSLRLSSAASGGIFQLYAMGWYRQAPGKERELVADISRSGGSTYYADSVKGRFTISRDTAKNTVYLQMNSLKPEDTAVYYCAARYWTSIVRYRGDYWGQGTQVTVSS”, the “polyreactivity (PSR sort gate)” value was “high polyreactivity”. Take “QVQLVESGGGLVQAGGSLRLSCAASGCTFQTYAMGWYRQAPGKERELVAGITAGGSTNYADSVKGRFSISRDNAKNTVYLQMNSLKPEDTAVYYCAVRQISQTSDHRLQYDYWGQGTQVNVSS”: the “polyreactivity (PSR sort gate)” value is recorded as “low polyreactivity”.

For “QVQIEESGGGLVQAGGSLRLSCAASGSTFGINAMGWSRQAPGKERELVAAISSRGGSTYYADSVKGRFTISRDNAQNTVYLQMNSLKPADTALYSCNRRGWSRTHQYDYWGQGTQVTVSS”, the “polyreactivity (PSR sort gate)” value is “high polyreactivity”.

Take “QVHLVESGGGLVQAGGSLRLSCAASGSIFRSYAMGWYRQAPGKERELVAGISWSGGSTYYADSVKGRFTISRDNAKNTVYLQMNSLKPEDTPVYYCDADIKIRLYTTGDYWGQGTQVTVSS”: the “polyreactivity (PSR sort gate)” value is “low polyreactivity”. For the sequence “QFQLVDSGGGLVQAGGSLRLSCAASGSTFYWYTMGWYREAPGKERELVATITSVGRTNYADSVKGRFTISRDNAKNTVYLEMNSLKPEDTAVYYCAASKARWPRGGSKYYDWGQGTQVTVSS”, the “polyreactivity (PSR sort gate)” value was “high polyreactivity”. Regarding “QVQLVESGGGLVQAGGSLRLSCAASGRISQSNAMGWYRQAPGKERELVAAISWRGGSTYYADSVKGRFTISRDNAKNTVYLQMNSLKPEDTAVYYCAVRGKYDRHYYWGQGTQVTVSS”, the “polyreactivity (PSR sort gate)” value is given as “high polyreactivity”.

For “QVQLVESAGGLVQAGGSLRLSCAASGFTFRSNAIGWYRQAPGKQRELVAAITSRGGSTYYADSVKGRFTISRDNAKNTVYLQMNSLKPVDTAVYYCAAEGRSRKFDYWGQGTQVTVSS”, the “polyreactivity (PSR sort gate)” value is on record as “high polyreactivity”.

As for “QVQLVESGGGLVQAGGSLRLSCAASGIIFLTNAMGWYRQAPGTVRELVAAITAIGGSTYYADSVKGRFTISRDNAKNTVYLQMNSLKPEDTAVYYCAADCSYVYYLYDYWGQGTQVTVSS”, the “polyreactivity (PSR sort gate)” value is “low polyreactivity”.

Consider “QVELVESGGGLVQAGGSLRLSCAASGRIFFYNGMGWYRQAPGKERELVAAINRSGGSTYYADSVKGRFTISRDNAKNTVYLQMNSLKPEDTAVYYCNAASFTVPMDYWGHGTQVTVSS”, for which the “polyreactivity (PSR sort gate)” value is “low polyreactivity”. Regarding “QVQLLESGGGLGQAGGSLRLSCAASGSILSINGMGWYRQAPGKERELVATIDGSDGSTFYADSVKGRFTISRDNAKNTVYLQMNSQKPEDTAVYYCAAENFWQTKEYDYWGQGTQVTVSS”, the “polyreactivity (PSR sort gate)” value is recorded as “low polyreactivity”. As for “QVQLVESGGGLVQAGGSLRLSSTASGFTFKLYAMGWERHATGKERELVAAISSYGGRTYYADSVKGRFTISRDNAKNTVYLQMKSLKPEDTAVYYCKAVRTVNDYHYDYWGQGTQVTVSS”, the “polyreactivity (PSR sort gate)” value was “high polyreactivity”. For the sequence “QVQLVESGGVLVQAGGSLRLSCAASGRIFSSNAMGWYRHAPGKESEFVADISWRTGSTYYADSVKGRFTISRDNAKNTVYLQMNSLKPEDTAVYYCKKRTGSYGYPYYYWGQGTQVTVSS”, the “polyreactivity (PSR sort gate)” value is “high polyreactivity”. As for “QVQLVESGGGLVQAGGSLRLSCAASGSIFDDYAMGWYRQAPGKERELVAAISSSGTSTYYADSVKGRFTISRDNAKNTVYLQMNSLKQEDTAVYYCAARSAILKSGYLMDYWGQGTQVTVSS”, the “polyreactivity (PSR sort gate)” value is reported as “low polyreactivity”. As for “QVQLVESGGGLVQAGGSLRLSCAASGITFNVNAMGWYRQAPGKERELVARITTSGGSTSYADSVKGRFTISRDNAKNTVYLQMNSLKPEDTAVYYFAADRARYYSEYDYWGQGTQVTVSS”, the “polyreactivity (PSR sort gate)” value is “low polyreactivity”. Take “QVQLVESGGGLVQAGGSLRLSCAASGRIFGFNAMGWYRQAPGKERQLVAAISGRSGRTYYADSVKGRFTISRDNAKNTVYLQLNSLIPEDTAVYYCNTVGYRGPSWYVYWGQGTQVTVSS”: the “polyreactivity (PSR sort gate)” value is given as “high polyreactivity”. On to “QVQLVESGGGLVQAGGSLRLSCAASGFIFSRNAMGWYRQAPGKEREFVAAISGRGGSTYYADSVKGRFTISRDNAKNTVYVQMNSLKPEDTAVYYCAVYSYGQTYSGYYLGQGTQVTVSS”, for which the “polyreactivity (PSR sort gate)” value is given as “high polyreactivity”.

On to “QVQLVESGGGLVQAGGSLRLSCAASGIIFAAYVMGWYRQAPGKERELVAAISKSGGRTYYADSVKGRFTISRDNAKNTVYLQMNSLKPEDTAVYYCATDVRVGHIRDYDYWGQGTQVTVSS”, for which the “polyreactivity (PSR sort gate)” value is listed as “high polyreactivity”.

With “QVQLVESGGGLVQAGGSLRLSCAASGRTFPSYTMGWYRQAPGKERELVAAISKSGGNTYYADSVKGRFTISRDNAKNTVYLQMNSLKPEDTAVYYCNADTYALGAAVIPGDEYWGQGTQVTVSS”, the “polyreactivity (PSR sort gate)” value is “low polyreactivity”. As for “QVQLVESGGGLVQAGGSLRLSCAASGIFSNYAMGWYRQAPGKERELVAAIRSRSGTTYYADSVKGRFTISRDNAKNTVYLQLNSLKPEDTAVYYCDAGGKSRSYYWGQGTQVTVSS”, the “polyreactivity (PSR sort gate)” value is on record as “high polyreactivity”. In the case of “HVQLQESGGGLVQAGGSLRLSCAASGNISYSRNMGWYRQAPGKERELVAAIDRGAITYYADSVQGRFTISRDNAKNTVYLQIYSLKPEDTAVYYCAAEYHDRWDHLYWGQGTQVTVSS”, the “polyreactivity (PSR sort gate)” value is “high polyreactivity”.

“QVQRVESRGGLVQAGGSLRLSCAASGSTFAVYALGWYRQAPGKERELVAAISQSGGSTNYADSVKGRFTISRDNAKNTVYLQMNSLKPEDTAVYYCNVDVSRSWAQPYTYDYWGQGTQVTVSS”: the “polyreactivity (PSR sort gate)” value was “low polyreactivity”. Consider “QVQLVESGGGLVQAGGSLRLSCAASGFTFEYYALGWYRPAPGKERELVAAITYSGGSTYYADSVKGRFTISRDNAKITVYLQLNSLKPEDTAVYYCATESPRYRLYQSAVYGYFYWGQGTQVTVSS”, for which the “polyreactivity (PSR sort gate)” value is “high polyreactivity”.

“QVQLVESGGGLVQAGGSLRLSCAASGSIFSYYAMGWYRQAPGKERELVAAINWSGGRTYYADSVKGRFTISRDNAKNTVYLQMNSLKPEDTAVYYCNAVSNFWFIVFYGNQPKTDDYWGQGTQVTVSS”: the “polyreactivity (PSR sort gate)” value was “high polyreactivity”. Take “QVQHVESGGGLVQAGGSLRLSCAATGRTFVYYAMGWYRQPPRKESELVASISSVGTTKYADSVKGRFTISRDNAKNTVYLQMNSLKPEDTAVYYCNNADDYSTVEFDYWGQGTQVTVSS”: the “polyreactivity (PSR sort gate)” value is given as “low polyreactivity”. On to “QVQLVESGGGLVQAGGSLRLSCAASGRTFSRYAMGWYRQAPGKERELVAAISRGGGSTNYADSVKGRFTISRDNAKNTVYLQMNSLKPEDTAVYYCASEYRYDWYTYGSWGQGTQVTVSS”, for which the “polyreactivity (PSR sort gate)” value was “high polyreactivity”.

In the case of “QVQLVESGGGLVQAGGSLRLSCAASGSTFWGYAMGWYRQAPGKERELVAAINWIGGSDTFYADSVKGRFTISRDNAKNTVYLQMNSLKPEDTAVYYCAATYYNLPYSWGYDYWGQGTQVTVSS”, the “polyreactivity (PSR sort gate)” value is given as “low polyreactivity”. For the sequence “QVQLVESGGGLVQAGGSLRLSCAASGSTFTRYAMGWYRQAPGKERELVAAITRSGGGTYYADSVKGRFTISRDNAKNTVYLQMNSLKPEDTAVYYCAKDIVFYGAPGYGYWGQGTQVTVSS”, the “polyreactivity (PSR sort gate)” value is on record as “high polyreactivity”. Turning to “QVQLVESGGGLVQAGGSLRLSCAASASIFLEYAMGWYRQAPGKERELVAGITISGGSTYYADSVKGRFTISRDNAKNTVYLQMNSLKPEDSAVYYCAKVAPRSSSSLEYYYWGQGTQVTVSS”, the “polyreactivity (PSR sort gate)” value is on record as “low polyreactivity”.
